The values that follow come from the supplement of paper PMC9170038.

The data set has as its system MS2 coat protein. Description: apparent KD of MS2 coat protein; designed switch direction (-1 OFF switch, 1 ON switch): 1; higher = weaker reporter binding. An outline of the steps:
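Normalised cluster fluorescence was curve-fitted, and each design's median over clusters is its apparent KD. Before this, SNAP-549-labelled MS2 coat protein was titrated from 0.7 or 1.5 nM, doubling to 3 µM, over RNA switches transcribed on Illumina chips by stalled E. coli RNA polymerase. Titrations had no input, 200 uM small-molecule ligand, or an oligonucleotide input, and steps lasted 0.8–1.5 h (lowest) to 10–20 min (highest).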

[1] abbreviates: input ligand: microRNA oligo, concentration not stated.
Setting [2] is: Eterna round: R95, input ligand: FMN 200 uM.
Setting [3] is: Eterna round: R95, input ligand: microRNA oligo, concentration not stated.
The mark [4] stands for this setting: Eterna round: R95, input ligand: none.

As to “ACGCUCCAUGGAGGAUAUGGGCCUGCCCGGGAUACCGGGCCUAACACAUGAGGAUCACCCAUGUCCCAGAAGGCCGCUGGAGCC [Atgeenbite] (Eterna round: R96, puzzle: Same State NG 2)”, the “apparent KD of MS2 coat protein” value (input ligand: FMN 200 uM) is 19.2 nM, the “apparent KD of MS2 coat protein” value under setting [1] came out at 62.3 nM and the “apparent KD of MS2 coat protein” value (input ligand: none) is 98.7 nM.

As for “CGUUCUUACUCGGUACGGUGAGUAGAGGAACAUGAGGAUCACCCAUGUUUGAGCUUUUUGCUCGUGAUUAACAGUUG [JR_SHM208a_Sub015] (puzzle: Sensor for hsa-mir-208a)”, the “apparent KD of MS2 coat protein” value by setting is: under setting [2], 92.2 nM; under setting [3], 102 nM; under setting [4], 149 nM.

For the sequence “CUCAAACAUGAGGAUCACCCAUGUGUUGUCGUGGGAGGAUAUCCCAGUUCGGUGGCGUCGGGAGAAGGCCUAUGUC [× ×•×ª×• ×ž×“×™× ×” × ×—×ª-16] (puzzle: Same State 1)”, the “apparent KD of MS2 coat protein” value is 50.4 nM under setting [2], 100 nM under setting [3] and 129 nM under setting [4].

As to “GAAGAACAUGAGGAUCACCCAUGUAGGCGGAAGCUAGGAUAUGCGGGAAAGAAGAGAGAAGCAGAAGGAGUAGGUA [JR_SS1_Sub030] (puzzle: Same State 1)”, the “apparent KD of MS2 coat protein” value is, setting by setting: under setting [2], 28.1 nM; under setting [3], 28.3 nM; under setting [4], 38.2 nM.

Consider “UUCUCACUGGUAGGAUAUGUAGGAUAUGUACAUGAGGAUCACCCAUGUCAGUUAAUGACAGAAGGAUAGAAGGACCACAUCUCU [pwkr ssNG2 2FMN 1F5s.1] (Eterna round: R96, puzzle: Same State NG 2)”, for which the “apparent KD of MS2 coat protein” value is 198 nM (input ligand: FMN 200 uM), 139 nM under setting [1] and 146 nM (input ligand: none).

“GGUCCAGCCUGAGCUGGACAAAAGCAUGUACAUGAGGAUCACCCAUGUCAUGUACAAGCUUUUUGCUCGUCUUAAAA [Mat - Sensor - JL mod - D87] (Eterna round: R96, puzzle: Sensor for hsa-mir-208a)”: the “apparent KD of MS2 coat protein” value is, setting by setting: (input ligand: FMN 200 uM) 586 nM; under setting [1], 14.2 nM; (input ligand: none) 573 nM.

In the case of “GCGGAAACUCACAUGAGGAUCACCCAUGUUCCGGAAACGGCACAGGAUAUCUGUCCGAAAAGGUCAGAGAAGGGUGAAAUCCGC [Fiskers NG3ss - 92] (Eterna round: R96, puzzle: Same State NG 3)”, the “apparent KD of MS2 coat protein” value was found to be 282 nM (input ligand: FMN 200 uM), 9.95 nM under setting [1] and 54.8 nM (input ligand: none).

“UAGAGAGGAAGCGAGGAUAUCGUGGGAGGAACAUGAGGAUCACCCAUGUGUGAUGUUGAGAGGGACGAGAAGGCGCGGGAAAUUA [JR_SS2_Sub080] (puzzle: Same State 2)”: the “apparent KD of MS2 coat protein” value is, setting by setting: under setting [2], 176 nM; under setting [3], 160 nM; under setting [4], 175 nM.

Take “GACAUUCUAUCUCAGGAUAUCAUGUCAAAGACAUGAGGAUCACCCAUGUACCAGGAAACUGGUUAUGAGAAGGGAGAUAGAAUGG [Mat - Same State 2 - Mod - D47] (puzzle: Same State 2)”: the “apparent KD of MS2 coat protein” value reads like this: under setting [2], 122 nM; under setting [3], 119 nM; under setting [4], 221 nM.

Turning to “GGUACACAUGAGGAUCACCCAUGUCGUAUGACAUGAGGAUAUGUACAGACUUCGGUCUGUACAGAAGGCAUGUGUC [SS1 - 1011 Omei Mod 4] (puzzle: Same State 1)”, under setting [3], the “apparent KD of MS2 coat protein” value was 24.5 nM.

Take “GAAAGCAUGGGAGGAUAUAGCCUCUAUGGAGGGCUAGAAGGCCCUGGCCACAUGAGGAUCACCCAUGUGAAAUAAAUAGAAGAA [MOD Raarceza] (Eterna round: R96, puzzle: Same State NG 1)”: the “apparent KD of MS2 coat protein” value came out at 453 nM (input ligand: FMN 200 uM), 2.74 nM under setting [1] and 188 nM (input ligand: none).

As to “UGGCUCAGACGAGGAUAUGGUCAUGGCGCUUCGGCGCAUACAUGAGGAUCACCCAUGUAGGGUGAUCAGAAGGUGUCUGAGCCA [SSNG2/9-B2] (Eterna round: R96, puzzle: Same State NG 2)”, the “apparent KD of MS2 coat protein” value reads like this: (input ligand: FMN 200 uM) 210 nM; under setting [1], 827 nM; (input ligand: none) 1100 nM.

In the case of “UCAAGCGAGAGGCUCGUCUUAUGUUUGGUACAUGAGGAUCACCCAUGUUAGGGACGAUUUAGUUAGAUGGAAUUUUG [JR_SHM208A_Sub035] (puzzle: Sensor for hsa-mir-208a)”, the “apparent KD of MS2 coat protein” value reads like this: under setting [2], 48.5 nM; under setting [3], 269 nM; under setting [4], 65.7 nM.

Turning to “GGAGCCAAGGCAGGAUAUUCAUAUUAAUAAACAUGAGGAUCACCCAUGUAGGCCAGAAGGCCUUGGGAGAAGGGCCAUGGCUCG [Xeonanis - 13 mod5] (Eterna round: R96, puzzle: Same State NG 2)”, the “apparent KD of MS2 coat protein” value turned out to be 21.3 nM (input ligand: FMN 200 uM), 120 nM under setting [1] and 196 nM (input ligand: none).

On to “UGUUGUAUUACAGGAUAUCUAGUAUUUUAAUUUAGAGAAGGGUAUUCACAUGAGGAUCACCCAUGUAUAUACGAGGAAGUUGUG [JMF's solution 43] (Eterna round: R96, puzzle: Same State NG 1)”, for which, under setting [1], the “apparent KD of MS2 coat protein” value was found to be 38.6 nM.

Take “GCGAGCGUACUUGCAGACAUGAGGAUCACCCAUGUAACUGGACAGGAUAUGGUACCGUUUCGGUACCAGAAGGGUUUAUUCAUG [JL SSNG3 3.56] (Eterna round: R96, puzzle: Same State NG 3)”: the “apparent KD of MS2 coat protein” value is, setting by setting: (input ligand: FMN 200 uM) 83.4 nM; under setting [1], 63.5 nM; (input ligand: none) 56.2 nM.

On to “AUAAGGCAAGCUUUUUUCUCGUAGUGUAAACAUGAGGAUCACCCAUGUGCCCACCCUGGAUCUUUGGAUCGCGGAAC [Raxesori] (puzzle: Sensor for hsa-mir-208a)”, for which the “apparent KD of MS2 coat protein” value reads like this: under setting [2], 83.6 nM; under setting [3], 27.1 nM; under setting [4], 104 nM.

Turning to “UCUUGGUUUUUGCUCGUUUUUUGUGUUGAACAUGAGGAUCACCCAUGUAUUGUACGGUCCGAUUUAAUAAUGGUCCA [JMF 38] (puzzle: Sensor for hsa-mir-208a)”, the “apparent KD of MS2 coat protein” value by setting is: under setting [2], 30.3 nM; under setting [3], 18.3 nM; under setting [4], 32.4 nM.

On to “CCGUGGUAACAUGAGGAUCACCCAUGUACAAGCUUUUUGCUCGUUGGAUCCGGCGCGCCCAUUAUGGGCGCGCCGGA [Nishu_Seq2] (puzzle: Sensor for hsa-mir-208a version 2)”, for which the “apparent KD of MS2 coat protein” value under setting [2] was 26.2 nM, the “apparent KD of MS2 coat protein” value under setting [3] came to 16 nM and the “apparent KD of MS2 coat protein” value under setting [4] is 25.6 nM.

Turning to “AGUCCAGCCUGAGCUGGACAAAAGCAUGUACAUGAGGAUCACCCAUGUUCAUGUACAAGCUUUUUGCUCGUCUUCAA [salish99_208a_r3_097x] (puzzle: Sensor for hsa-mir-208a)”, the “apparent KD of MS2 coat protein” value came out at 701 nM under setting [2], 13.7 nM under setting [3] and 525 nM under setting [4].

As to “AUUAUACAUGAGGAUCACCCAUGUCAAUGUAGUCGAGGAUAUGGGUUGCUAUGAGGCGUACUAGAAGGCGAGGAGA [Mat - Same State 1 - Mod of JL - D17] (puzzle: Same State 1)”, the “apparent KD of MS2 coat protein” value by setting is: under setting [2], 61.5 nM; under setting [3], 99.9 nM; under setting [4], 82.8 nM.

Take “UUAUAACAUGAGGAUCACCCAUGUCAACAAAGUCGAGGAUAUGGGCAAUUAUUAUAAGAACCAGAAGGCGAAUAUU [Mat - Same State 1 - Mod of UCT - D32] (puzzle: Same State 1)”: the “apparent KD of MS2 coat protein” value is 35.5 nM under setting [2], 342 nM under setting [3] and 230 nM under setting [4].

As for “UUUUUGAUCCGAGGAUAUCCUUUUUUCUUACAUGAGGAUCACCCAUGUAAAGGGAUUGAGUUGUAGGAGAAGGCGGUUUUUUUU [JR_SSNG2_Sub060] (Eterna round: R96, puzzle: Same State NG 2)”, the “apparent KD of MS2 coat protein” value (input ligand: FMN 200 uM) turned out to be 17.5 nM, the “apparent KD of MS2 coat protein” value under setting [1] is 32.4 nM and the “apparent KD of MS2 coat protein” value (input ligand: none) came out at 32.3 nM.

In the case of “GCUGCAAUUAACGCCUACAUGAGGAUCACCCAUGUAUGUAGGCAGGAUAUCGUUUGCAAAGCAAACGAGAAGGGCUGUAGUAGC [Mat - Same State NG 3 - JL Mod - D37] (Eterna round: R96, puzzle: Same State NG 3)”, the “apparent KD of MS2 coat protein” value was 65.4 nM (input ligand: FMN 200 uM), 83.4 nM under setting [1] and 113 nM (input ligand: none).

Consider “GAGCCAGUCCGAGGAUAUUCAUAUUAACACAUGAGGAUCACCCAUGUAGGCUCAGAAGAGCCCUGGGAGAAGGCGGACUGGCUC [SS-NG2-LRO15] (Eterna round: R96, puzzle: Same State NG 2)”, for which the “apparent KD of MS2 coat protein” value came to 85.5 nM (input ligand: FMN 200 uM), 455 nM under setting [1] and 1100 nM (input ligand: none).

As for “GAGUGGCAGUUAGGAUAUAUAGUGAUAAUUACAAUAGAAGGAACAGACAUGAGGAUCACCCAUGUAGGACUAAUCCAGAGAGAG [Parity 38 - Jieux - Same State NG 1] (Eterna round: R96, puzzle: Same State NG 1)”, the “apparent KD of MS2 coat protein” value was found to be 30.9 nM (input ligand: FMN 200 uM), 20.6 nM under setting [1] and 30.9 nM (input ligand: none).

For the sequence “GGUAGGUUACUACCAACACAUGAGGAUCACCCAUGUUUUCAUGAGGAUAUGGUACCUAUUUGGUACCAGAAGGCAUGGUUAAUU [Fiskers NG3ss - 18] (Eterna round: R96, puzzle: Same State NG 3)”, the “apparent KD of MS2 coat protein” value came out at 48.6 nM (input ligand: FMN 200 uM), 76.8 nM under setting [1] and 104 nM (input ligand: none).

On to “UACUAUCUAUCUCAGGAUAUCAUGUCAAAGACAUGAGGAUCACCCAUGUACCAGGAAACUGGUUAUGAGAAGGGAGAUAGAUAGA [Mat - Same State 2 - Mod - D39] (puzzle: Same State 2)”, for which the “apparent KD of MS2 coat protein” value under setting [2] is 98.2 nM, the “apparent KD of MS2 coat protein” value under setting [3] was found to be 45.1 nM and the “apparent KD of MS2 coat protein” value under setting [4] was determined as 234 nM.
